Experimental findings from US20210032334A1 (Dana-Farber, published 2021) are described below.

The assay has as its target T1, full-length murine BTNL2 expressed on 300.19 cells (mouse).
T1 construct: No signal peptide limits are stated; also called mBTNL2; mouse BTNL2
T1 chain: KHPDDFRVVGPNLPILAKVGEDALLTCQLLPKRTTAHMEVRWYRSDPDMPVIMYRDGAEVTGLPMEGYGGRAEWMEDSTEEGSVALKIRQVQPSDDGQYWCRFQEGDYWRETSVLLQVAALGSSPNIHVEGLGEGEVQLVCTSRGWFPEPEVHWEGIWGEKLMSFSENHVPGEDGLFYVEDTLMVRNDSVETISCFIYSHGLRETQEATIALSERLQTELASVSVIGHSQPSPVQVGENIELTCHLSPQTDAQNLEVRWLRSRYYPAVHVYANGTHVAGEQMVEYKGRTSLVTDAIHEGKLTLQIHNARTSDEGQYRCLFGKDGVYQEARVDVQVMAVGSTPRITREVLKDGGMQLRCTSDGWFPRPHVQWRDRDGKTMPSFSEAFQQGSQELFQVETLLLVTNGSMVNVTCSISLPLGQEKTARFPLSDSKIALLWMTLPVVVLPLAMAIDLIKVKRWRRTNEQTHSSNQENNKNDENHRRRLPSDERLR
As to the kind of experiment: flow cytometry, cell binding on 300.19 cells expressing full-length mBTNL2. The protocol: All rat anti-mouse BTNL2 mAbs were tested for reactivity with specific Ig domains of BTNL2 by flow cytometry on 300.19 cells transfected with full length murine BTNL2 cDNA, murine BTLN2 (first IgV domain)-murine PD-L1 (IgC, transmembrane and cytoplasmic domains, or BTNL2 (first IgV domain and 2nd Ig domain and short exon 4)-human TIM-1 mucin-transmembrane-cytoplasmic domains and for lack of reactivity with untransfected 300.19 cells. In particular, mouse pre-B cell line 300.19 cells were transfected by electroporation with full length murine BTNL2 cDNA, murine BTLN2 (first IgV domain)-murine PD-L1 (IgC, transmembrane and cytoplasmic domains, or BTNL2 (first IgV domain and 2nd Ig domain and short exon 4)-human TIM-1 mucin-transmembrane-cytoplasmic domains in the pEFGF-Puro expression vector. Cells were selected in media containing puromycin, sorted, and subcloned. […] Cells were stained with target antibodies and isotype controls using standard flow cytometry procedures, and analyzed on a FACSCanto (BD Biosciences) and FlowJo 9.2 software (TreeStar). […]
A number of anti-BTNL2 monoclonal antibodies were generated and analyzed (see FIGS. 3C-3D and Table 3 below for details), including extensive analysis of two exemplary anti-BTNL2 monoclonal antibodies that were prepared in rat against mouse BTNL2 (mBTNL2). […]

B1: anti-mouse BTNL2 monoclonal antibody clone 311.8A7 (antibody, rat IgG1, V domains shown)
VH: EVRLVESGGGLVQPGRSLKLSCAASGFTFRIFYMAWVRQSPTKGLEWVAYISAGSDFTYYRDSVKGRFTISRDDAKSTLYLEMDSLRSEDTATYHCTTGYRYNFAYWGQGTLVTVSS
VL: DIQLTQSPSSLPASLGERVTISCRSSQDINSHLNWYQQKPDGTIKALIYQTSNLQSGVPSRFSGSGSGADYSLTISSLEPEDFAIFHCQQDADFPYTFGAGTKLELK
notes: Rat IgG1 (kappa) from a hybridoma, 311 series
As usually defined, the EC50 is the concentration that produces a half-maximal response. B1 had an EC50 of 0.054 mg/L.
